The target in assay [1] is T1, S. aureus sortase A (S. aureus), Q2FV99.
T1 chain: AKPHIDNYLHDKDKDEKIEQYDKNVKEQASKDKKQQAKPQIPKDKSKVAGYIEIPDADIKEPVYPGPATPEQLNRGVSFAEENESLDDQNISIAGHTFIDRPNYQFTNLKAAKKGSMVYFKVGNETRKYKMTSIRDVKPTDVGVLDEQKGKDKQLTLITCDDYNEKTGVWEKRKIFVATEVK
The experiment in a line: apparent binding affinity (IC50) for S. aureus sortase A; assay not described.

Assay [2] deals with HCV protease (hepatitis C virus (HCV)). Briefly: cell-based or functional assay.
Assay [3] has the same target. The experiment in a line: inhibition constant for HCV protease (FIG. 1, left); method not described.
Assay [4] shares this target. The experiment in a line: apparent binding affinity for HCV protease; method not described.
Assay [5] addresses T2, B. anthracis lethal factor (B. anthracis), P15917.
T2 chain: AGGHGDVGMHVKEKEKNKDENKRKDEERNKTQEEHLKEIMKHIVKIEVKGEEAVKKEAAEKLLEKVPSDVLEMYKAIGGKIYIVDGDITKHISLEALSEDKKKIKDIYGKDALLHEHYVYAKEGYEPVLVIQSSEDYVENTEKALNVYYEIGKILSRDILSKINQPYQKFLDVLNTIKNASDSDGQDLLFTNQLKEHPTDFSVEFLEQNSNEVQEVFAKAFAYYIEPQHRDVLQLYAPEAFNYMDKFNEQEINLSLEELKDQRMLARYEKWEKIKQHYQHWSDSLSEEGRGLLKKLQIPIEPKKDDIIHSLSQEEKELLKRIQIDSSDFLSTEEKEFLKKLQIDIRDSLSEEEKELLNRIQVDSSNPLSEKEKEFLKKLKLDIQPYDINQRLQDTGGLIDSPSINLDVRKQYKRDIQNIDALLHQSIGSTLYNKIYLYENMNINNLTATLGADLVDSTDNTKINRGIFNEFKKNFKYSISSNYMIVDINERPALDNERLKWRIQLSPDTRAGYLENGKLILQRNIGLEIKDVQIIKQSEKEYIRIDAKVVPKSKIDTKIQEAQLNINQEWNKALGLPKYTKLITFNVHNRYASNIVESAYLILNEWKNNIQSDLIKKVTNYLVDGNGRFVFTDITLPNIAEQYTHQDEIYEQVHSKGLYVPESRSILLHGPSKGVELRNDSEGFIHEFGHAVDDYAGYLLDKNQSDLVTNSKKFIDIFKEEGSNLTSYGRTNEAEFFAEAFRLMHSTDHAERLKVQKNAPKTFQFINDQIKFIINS
Briefly: cell-based or functional assay.

In assay [6] the target is T2, B. anthracis lethal factor (B. …).
Assay [7] concerns the target T3, metalloproteinase ECE-1 protease, P42892.
T3 chain: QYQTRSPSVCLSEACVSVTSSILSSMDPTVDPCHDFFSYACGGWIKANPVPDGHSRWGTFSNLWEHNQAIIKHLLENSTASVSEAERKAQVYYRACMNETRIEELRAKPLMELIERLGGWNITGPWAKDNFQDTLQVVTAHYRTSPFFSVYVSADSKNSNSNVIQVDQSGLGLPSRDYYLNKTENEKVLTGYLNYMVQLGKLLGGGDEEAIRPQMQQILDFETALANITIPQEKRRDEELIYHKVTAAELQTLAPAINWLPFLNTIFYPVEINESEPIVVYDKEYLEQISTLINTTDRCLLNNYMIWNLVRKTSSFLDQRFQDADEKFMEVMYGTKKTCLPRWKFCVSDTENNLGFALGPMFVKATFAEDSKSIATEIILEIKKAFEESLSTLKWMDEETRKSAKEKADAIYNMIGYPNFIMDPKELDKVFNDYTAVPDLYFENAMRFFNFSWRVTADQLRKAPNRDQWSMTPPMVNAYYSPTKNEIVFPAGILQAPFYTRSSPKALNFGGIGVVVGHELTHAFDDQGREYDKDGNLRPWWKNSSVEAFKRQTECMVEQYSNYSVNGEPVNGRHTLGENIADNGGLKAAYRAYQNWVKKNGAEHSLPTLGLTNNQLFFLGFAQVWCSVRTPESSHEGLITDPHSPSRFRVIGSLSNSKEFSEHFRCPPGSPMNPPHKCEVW
The experiment in a line: apparent binding affinity for ECE-1; method not described.

Assay [8] has the same target. The experiment in a line: cell-based or functional assay.
The target in assay [9] is HCV protease (hepatitis C virus (HCV)). Briefly: affinity of metallopeptide for HCV protease; method not described.

Where no end group is shown, it is not given here. [ ]: non-standard residue; d: D form. Cha = N[C@@H](CC1CCCCC1)C(=O)O

By IC50 is commonly meant the concentration needed to halve the response being measured. Consider GGHGLPET (modifications not checked) [Cu-GGHGLPET], for which the IC50 in assay [1] was greater than 100 µM.
In general, kinact refers to the rate constant of inactivation at saturating inhibitor. One may read the Ki as a measure of affinity in units of concentration, obtained from inhibition or displacement. As to GGHGD[dE]LI[Cha]C-OH (also: Cu complex) [Cu-GGHGDeLI(Cha)C-CO2^-], in [2], the maximal inactivation rate constant (kinact) amounted to 0.0014 min⁻¹ and the rate constant for inactivation kinact was less than 0.083 h⁻¹. The Ki in assay [3] was 0.5 µM. Moreover, the Ka in assay [4] came to 2e+06 M⁻¹.
With GGHLPETG (modifications not checked) [Cu-GGHLPETG], the IC50 in assay [1] was greater than 100 µM.
Turning to GCHP (modifications not checked) [Cu-GCHP], the kinact in assay [5] is 0.077 min⁻¹. In assay [6], the Ka is 45000 M⁻¹.
For the molecule GGHGLPETG (modifications not checked) [Cu-…], the IC50 in assay [1] is greater than 100 µM.
Take KGHK (modifications not checked) [Cu-KGHK]: in assay [5], the inactivation rate constant (kinact) was 0.035 min⁻¹. In [6], this molecule came in with a Ka of 125000 M⁻¹.
Take GGHLPET (modifications not checked) [Cu-GGHLPET]: the IC50 in [1] was greater than 100 µM.
On to GGHGD[dE]LI[Cha]T (also: Cu complex) [Cu-GGHGDeLI(Cha)T], for which the inactivation rate constant (kinact) in assay [2] worked out at 0.042 min⁻¹. In addition, in assay [4], the Ka came out at 33000 M⁻¹.
On to GGHGGDF (modifications not checked) [Cu-GGHGGDF], for which the Ka in [7] stood at 80000 M⁻¹. Also, the maximal inactivation rate constant (kinact) in assay [8] was 0.5 min⁻¹.
Turning to GGHD[dE]LI[Cha]CP[Cha]DL [Gly-Gly-His-Asp-D-Glu-Leu-Ile-Cha-Cys-Pro-Cha-Asp-Leu], in assay [9], the affinity stood at 10 nM.
